Measured values published in patent US20210238292A1 (VACCINEX, published 2021).
Where a chain is given by its changes, count along the chain named. Where two headings read alike, the source gives them in different places.

Tests used:
[1] = target: human CCR8 (C-C chemokine receptor type 8) expressed on cells (human) (UniProt P51685); test: flow cytometry competition on Raji-CCR8 cells; competitor: fluorescently-conjugated BIOLEGEND anti-human CCR8 antibody at a single concentration
Cynomolgus CCR8-ECD-Fc [2] = target: T1, Cynomolgus CCR8-ECD-Fc (cynomolgus monkey); test: binding to CyCCR8-ECD-Fc protein, OD 450-570 nm
T1 construct: also called CyCCR8-ECD-Fc; Cynomolgus CCR8-Fc
T1 chain: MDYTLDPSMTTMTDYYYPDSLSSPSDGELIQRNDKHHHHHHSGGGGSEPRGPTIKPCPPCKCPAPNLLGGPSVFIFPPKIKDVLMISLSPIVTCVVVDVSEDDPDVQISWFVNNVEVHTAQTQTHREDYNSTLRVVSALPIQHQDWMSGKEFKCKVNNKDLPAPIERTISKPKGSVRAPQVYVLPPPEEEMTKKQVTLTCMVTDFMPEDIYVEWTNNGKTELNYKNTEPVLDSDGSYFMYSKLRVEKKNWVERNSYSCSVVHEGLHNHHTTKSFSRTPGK

Human CCR8-ECD-Fc [3] = target: T2, Human CCR8-ECD-Fc (human); test: binding to HuCCR8-ECD-Fc protein, OD 450-570 nm
T2 construct: also called HuCCR8-ECD-Fc; huCC8-ECD-Fc
T2 chain: T1 chain with P7L, M9V, M12V, S20I, L21F, G27A, R32T, D34G

[4] = target: T3, cynomolgus monkey CCR8 expressed on cells (cynomolgus monkey, UniProt G7NYJ2 1-355); test: on-cell affinity, flow cytometry on 293T cells expressing cyno CCR8
T3 construct: whole, on cells; also called cyno CCR8; CyCCR8
Target sequence in this assay (G7NYJ2 entry or part of it): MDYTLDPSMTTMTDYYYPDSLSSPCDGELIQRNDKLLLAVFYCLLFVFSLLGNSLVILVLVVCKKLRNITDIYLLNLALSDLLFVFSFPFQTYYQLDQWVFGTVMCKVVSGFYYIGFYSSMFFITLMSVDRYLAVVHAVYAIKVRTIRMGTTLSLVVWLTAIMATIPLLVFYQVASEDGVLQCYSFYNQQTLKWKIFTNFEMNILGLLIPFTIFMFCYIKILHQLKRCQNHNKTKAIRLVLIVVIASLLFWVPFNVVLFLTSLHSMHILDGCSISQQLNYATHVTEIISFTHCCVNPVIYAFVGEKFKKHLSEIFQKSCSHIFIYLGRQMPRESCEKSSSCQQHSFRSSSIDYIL

[5] = target: T4, human CCR8 (C-C chemokine receptor type 8) expressed on cells (human, UniProt P51685 1-355); test: on-cell affinity, flow cytometry on 293T cells expressing human CCR8
T4 construct: also called HuCCR8
T4 sequence (P51685 whole entry): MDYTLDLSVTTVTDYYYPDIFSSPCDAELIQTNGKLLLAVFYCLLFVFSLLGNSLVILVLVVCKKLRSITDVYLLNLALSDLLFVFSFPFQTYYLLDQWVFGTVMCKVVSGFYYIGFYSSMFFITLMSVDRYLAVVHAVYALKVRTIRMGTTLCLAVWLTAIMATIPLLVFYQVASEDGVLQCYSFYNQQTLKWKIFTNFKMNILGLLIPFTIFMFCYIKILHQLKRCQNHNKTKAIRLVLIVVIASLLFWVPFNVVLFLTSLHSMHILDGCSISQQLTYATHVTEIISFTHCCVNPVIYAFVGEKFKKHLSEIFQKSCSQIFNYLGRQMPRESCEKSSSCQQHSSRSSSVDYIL

[6] = target: T3, cynomolgus monkey CCR8 expressed on …; test: flow cytometry, CyCCR8-293T cells, fold geomean over secondary alone
[7] = target: T4, human CCR8 (C-C chemokine receptor type …); test: flow cytometry, HuCCR8-293T cells, fold geomean over secondary alone
Cynomolgus CCR8-ECD-Fc [8] = target: T1, Cynomolgus CCR8-ECD-Fc; test: binding to CyCCR8-ECD-Fc protein, OD 450-570 nm
Human CCR8-ECD-Fc [9] = target: T2, Human CCR8-ECD-Fc; test: binding to HuCCR8-ECD-Fc protein, OD 450-570 nm
[10] = target: T4, human CCR8 (C-C chemokine receptor type …); test: flow cytometry, HuCCR8-293T cells, fold geomean over secondary alone; remark: listed apart in the source
Cynomolgus CCR8-ECD-Fc [11] = target: T1, Cynomolgus CCR8-ECD-Fc; test: binding to CyCCR8-ECD-Fc protein, OD 450-570 nm
Human CCR8-ECD-Fc [12] = target: T2, Human CCR8-ECD-Fc; test: binding to HuCCR8-ECD-Fc protein, OD 450-570 nm
[13] = target: T3, cynomolgus monkey CCR8 expressed on …; test: flow cytometry, CyCCR8-293T cells, fold geomean over secondary alone; remark: listed apart in the source
[14] = target: T4, human CCR8 (C-C chemokine receptor type …); test: flow cytometry, HuCCR8-293T cells, fold geomean over secondary alone; remark: listed apart in the source
Cynomolgus CCR8-ECD-Fc [15] = target: T1, Cynomolgus CCR8-ECD-Fc; test: binding to CyCCR8-ECD-Fc protein, OD 450-570 nm
Human CCR8-ECD-Fc [16] = target: T2, Human CCR8-ECD-Fc; test: binding to HuCCR8-ECD-Fc protein, OD 450-570 nm
[17] = target: T3, cynomolgus monkey CCR8 expressed on …; test: flow cytometry, CyCCR8-293T cells, fold geomean over secondary alone; remark: listed apart in the source
[18] = target: T4, human CCR8 (C-C chemokine receptor type …); test: flow cytometry, HuCCR8-293T cells, fold geomean over secondary alone; remark: listed apart in the source
Cynomolgus CCR8-ECD-Fc [19] = target: T1, Cynomolgus CCR8-ECD-Fc; test: binding to CyCCR8-ECD-Fc protein, OD 450-570 nm
Human CCR8-ECD-Fc [20] = target: T2, Human CCR8-ECD-Fc; test: binding to HuCCR8-ECD-Fc protein, OD 450-570 nm
[21] = target: T3, cynomolgus monkey CCR8 expressed on …; test: flow cytometry, CyCCR8-293T cells, fold geomean over secondary alone; remark: listed apart in the source
[22] = target: T4, human CCR8 (C-C chemokine receptor type …); test: flow cytometry, HuCCR8-293T cells, fold geomean over secondary alone; remark: listed apart in the source
[23] = target: T4, human CCR8 (C-C chemokine receptor type …); test: on-cell affinity, flow cytometry on 293T cells expressing human CCR8; remark: listed apart in the source
[24] = target: T5, mouse CCR8 expressed on 293T cells (mouse, UniProt P56484 1-353); test: flow cytometry, mouseCCR8-293T cells, fold geomean over secondary alone
T5 construct: whole, on cells
T5 sequence (looked up): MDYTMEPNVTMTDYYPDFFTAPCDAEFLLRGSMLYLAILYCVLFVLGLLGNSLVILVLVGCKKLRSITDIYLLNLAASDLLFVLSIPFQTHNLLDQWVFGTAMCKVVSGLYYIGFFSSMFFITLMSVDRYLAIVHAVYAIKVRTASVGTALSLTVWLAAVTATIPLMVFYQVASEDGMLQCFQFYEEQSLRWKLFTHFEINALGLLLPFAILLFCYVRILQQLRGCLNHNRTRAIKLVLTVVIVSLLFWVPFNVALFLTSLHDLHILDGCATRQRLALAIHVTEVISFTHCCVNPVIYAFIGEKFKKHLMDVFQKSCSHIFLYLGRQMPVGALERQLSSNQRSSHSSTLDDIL

Cynomolgus CCR8-ECD-Fc [25] = target: T1, Cynomolgus CCR8-ECD-Fc; test: binding to CyCCR8-ECD-huFc protein (so in the source), OD45-570nm (so in the source)
Human CCR8-ECD-Fc [26] = target: T2, Human CCR8-ECD-Fc; test: binding to HuCCR8-ECD-moFc protein (so in the source), OD45-570nm (so in the source)
[27] = target: T3, cynomolgus monkey CCR8 expressed on …; test: on-cell affinity, flow cytometry on 293T cells expressing cyno CCR8; remark: listed apart in the source
Target sequence in this assay (G7NYJ2 entry or part of it): as the sequence (G7NYJ2 entry or part of it) above

[28] = target: T5, mouse CCR8 expressed on 293T cells; test: flow cytometry, mouseCCR8-293T cells, fold geomean over secondary alone; remark: listed apart in the source
Cynomolgus CCR8-ECD-Fc [29] = target: T1, Cynomolgus CCR8-ECD-Fc; test: binding to CyCCR8-ECD-huFc protein (so in the source), OD45-570nm (so in the source)
Human CCR8-ECD-Fc [30] = target: T2, Human CCR8-ECD-Fc; test: binding to HuCCR8-ECD-moFc protein (so in the source), OD45-570nm (so in the source)

human CCR8 (C-C chemokine receptor type 8) expressed on cells (human), sequence (P51685 whole entry, the tested form may be a part): as the sequence (P51685 whole entry) above

## Biolegend control (antibody)
[1]
  IC50 (read off the curve): 0.03 µg/mL

B1: anti-CCR8-2-3 (antibody, V domains shown)
VH: EVQLVESGGGLVQPGRSLRLSCAASGFTFDDYAMHWVRQAPGKGLEWVSGISWNSGSIGYADSVKGRFTISRDNSKNSLYLQMNSLRAEDTALYYCARGRKSYRDSLRFDYWGQGTLVTVSS
VL: QSVLTQPPSVSAAPGQKVTISCSGSSSNIGNNYVSWYQQLPGTAPKLLIYDNNKRPSGIPDRFSGSKSGTSATLGITGLQTGDEADYYCGTWDSSLSAWVFGGGTKLT
notes: Human IgG from a mammalian expression vector in CHO cells; also called heavy chain H23499
Cynomolgus CCR8-ECD-Fc [2]
  EC50 (read off the curve): ~0.03 µg/mL
Human CCR8-ECD-Fc [3]
  EC50 (read off the curve): ~0.03 µg/mL
[4]
  Kd: 3.9 nM
[5]
  Kd: 2.5 nM
[6]
  EC50 (read off the curve): ~1 µg/mL
[7]
  EC50 (read off the curve): ~0.4 µg/mL

B2: anti-CCR8-2-10 (antibody, V domains shown)
VH: B1 VH
VL: QSVLTQPPSVSAAPGQKVTISCSGTSSNIGKNFVSWYQQLPGTAPKLLIYDDNKRPSGIPDRFSGSKSATSATLGITGLQTGDGADYYCGTWDSSLSAWVFGGGTKLTVL
notes: Human IgG
Cynomolgus CCR8-ECD-Fc [8]
  EC50 (read off the curve): ~0.04 µg/mL
Human CCR8-ECD-Fc [9]
  EC50 (read off the curve): ~0.04 µg/mL
[4]
  Kd: 3.9 nM
[5]
  Kd: 2.4 nM
[10]
  EC50 (read off the curve): ~0.6 µg/mL

B3: anti-CCR8-2-8 (antibody, V domains shown)
VH: B1 VH with K101R
VL: QSVLTQPPSVSGAPGQRVTISCTGSGSNIGNNYVSWYQQLPGTAPKMLIYDNTRRPSGIPDRFSGSKSDTSATLGITGLQTGDEADYYCGAWDSSLRMWVFGGGTKLTVL
notes: Human IgG
Cynomolgus CCR8-ECD-Fc [11]
  EC50 (read off the curve): ~0.04 µg/mL
Human CCR8-ECD-Fc [12]
  EC50 (read off the curve): ~0.04 µg/mL
[4]
  Kd: 2.5 nM
[5]
  Kd: 1.5 nM
[13]
  EC50 (read off the curve): ~1 µg/mL
[14]
  EC50 (read off the curve): ~0.4 µg/mL

B4: anti-CCR8-2-7 (antibody, V domains shown)
VH: B1 VH with K101D, D105K
VL: B3 VL
notes: Human IgG
Cynomolgus CCR8-ECD-Fc [15]
  EC50 (read off the curve): ~0.04 µg/mL
Human CCR8-ECD-Fc [16]
  EC50 (read off the curve): ~0.04 µg/mL
[4]
  Kd: 3.5 nM
[5]
  Kd: 1.3 nM
[17]
  EC50 (read off the curve): ~1 µg/mL
[18]
  EC50 (read off the curve): ~0.4 µg/mL

B5: anti-CCR8-2-9 (antibody, V domains shown)
VH: B1 VH
VL: B3 VL
notes: Human IgG
Cynomolgus CCR8-ECD-Fc [19]
  EC50 (read off the curve): ~0.04 µg/mL
Human CCR8-ECD-Fc [20]
  EC50 (read off the curve): ~0.04 µg/mL
[4]
  Kd: 3.2 nM
[5]
  Kd: 1.5 nM
[21]
  EC50 (read off the curve): ~0.4 µg/mL
[22]
  EC50 (read off the curve): ~0.4 µg/mL

B6: anti-CCR8-parental-1 (antibody, V domains shown)
VH: QVQLVQSGAEVKKPGASVKVSCKASGYTFTSYYMHWVRQAPGQGLEWMGIINPSGGSTSYAQKFQGRVTMTRDTSTSTVYMELSSLRSEDTAVYYCARGVGNGFRFDYWGQGTLVT
VL: QSALTQPASVSGSPGQSITISCTGTSSDVGSYNLVSWYQQHPGKAPKLMIYEVSKRPSGVSNRFSGSKSGNTASLTISGLQAEDEADYYCSSYAGSSTFVVFGGGTKLTVL
notes: Full-length human IgG; also called parental antibody; H23188/L1037
[23]
  Kd: 1.06 nM

B7: anti-CCR8-1-3 (antibody, V domains shown)
VH: B6 VH
VL: B6 VL with A8P, T23S, S31I, M49I, S54I, V60I, S67F, S96P, S97V, F99Y
notes: Parental-1 heavy chain with a shuffled lambda light chain; Human IgG expressed in CHO cells
[23]
  Kd: 1.38 nM
[24]
  binding result: no binding (tested: 10 ug/ml)
Cynomolgus CCR8-ECD-Fc [25]
  binding result: binds
Human CCR8-ECD-Fc [26]
  binding result: binds

B8: anti-CCR8-1-4 (antibody, V domains shown)
VH: B6 VH
VL: QSALTQPASVSGSPGQSITISCSGTSSNIGKYNLVSWYQQHPGEAPTLLIYEATKRPSGVSNRFSGSKSGNTASLTISGLQAEDEADYICSSYAGSRVFVVFGGGTKLTVL
notes: as for B7
[27]
  Kd: 35.9 nM
[23]
  Kd: 0.28 nM
[28]
  binding result: no binding (tested: 10 ug/ml)
Cynomolgus CCR8-ECD-Fc [29]
  binding result: binds
Human CCR8-ECD-Fc [30]
  binding result: binds
